{
  "source": "paper PMC11809415",
  "about": "(The Journal of Cell Biology, 2025)",
  "biological_target": "F-actin (rabbit skeletal muscle α-actin filaments) (rabbit, UniProt P68135 1-377)",
  "assay": "co-sedimentation; 2 µM F-tractinopt-mCherry fusions incubated with F-actin at increasing concentrations for 5 min at room temperature, 120,000 g for 20 min at 4°C; supernatant and pellet on SDS-PAGE, densitometry; Kd by GraphPad Prism",
  "details": "both partners purified",
  "data": [
    {"binder": "APRRSVGELRLLFEARAASAA (domain or fragment, rat inositol 1,4,5-trisphosphate 3-kinase A; numbers count on: the 43-residue F-tractin peptide (peptide residue n = kinase residue n+9); source: E. coli BL21-CodonPlus(DE3)-RIPL, purified (Protino Ni-IDA resin))", "note": "[F-tractinopt–mCherry fusion]", "values": [
      {"measurement": "Kd", "value": "8.5 ± 1.2", "unit": "µM"}
    ]}
  ]
}
